The values below come from paper doi:10.1101/847772.

pKd: −log10 of the molar value.

The target of the experiment is biotin-labelled M3C phenomycin (Streptomyces fervens MA 564-Cl). Kind of experiment: BLI.

On to human 80S ribosome (complex), for which the pKd (as a rule, −log10 of the Kd, conventionally taken in molar units) was 10.64.
